Reference: the supplement of paper PMC9112550, “Optimization of the antimicrobial peptide Bac7 by deep mutational scanning” (BMC Biology, 2022)

System: Escherichia coli TOP10
Experiment: shrunken log2 fold change of peptide-encoding DNA abundance (4.5 h post-induction vs induction); higher = less antimicrobial activity (less host growth inhibition)
Details: time post-induction: 4.5 h; library: site-saturation at positions 5, 18, 19, 20
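Also: peptides expressed intracellularly from a pBAD plasmid library in pooled LB shake-flask culture, induced with 0.3% L-arabinose, DNA abundance read by NGS, three biological replicates, DESeq2 with apeglm shrinkage.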

Sequence | shrunken log2 fold change
RRIRFRPPRLPRPRPRPFIIPRP | -0.816
RRIRFRPPRLPRPRPRPFKDPRP | -0.112
RRIRFRPPRLPRPRPRPFMAPRP | -0.417
RRIRFRPPRLPRPRPRPFMRPRP | 0.559
RRIRFRPPRLPRPRPRPFNEPRP | -0.322
RRIRFRPPRLPRPRPRPFNNPRP | -0.262
RRIRFRPPRLPRPRPRPFNPPRP | -0.733
RRIRFRPPRLPRPRPRPFPKPRP | 0.00183
RRIRFRPPRLPRPRPRPFRSPRP | -0.0534
RRIRFRPPRLPRPRPRPFRWPRP | 0.178
RRIRFRPPRLPRPRPRPFSGPRP | -0.0879
RRIRFRPPRLPRPRPRPFSKPRP | 0.033
RRIRFRPPRLPRPRPRPFTLPRP | 0.0331
RRIRFRPPRLPRPRPRPFVIPRP | -0.479
RRIRFRPPRLPRPRPRPFVVPRP | -0.219
RRIRFRPPRLPRPRPRPFWKPRP | -0.0963
RRIRFRPPRLPRPRPRPFYKPRP | -0.311
RRIRFRPPRLPRPRPRPGCEPRP | 0.187
RRIRFRPPRLPRPRPRPGCHPRP | -0.141
RRIRFRPPRLPRPRPRPGDGPRP | 0.264
RRIRFRPPRLPRPRPRPGDMPRP | -0.311
RRIRFRPPRLPRPRPRPGEFPRP | -0.239
RRIRFRPPRLPRPRPRPGESPRP | -0.00672
RRIRFRPPRLPRPRPRPGFIPRP | -0.257
RRIRFRPPRLPRPRPRPGGQPRP | 0.0786

Sequence | shrunken log2 fold change
RRIRFRPPRLPRPRPRPGGSPRP | -0.0392
RRIRFRPPRLPRPRPRPGKAPRP | 0.0429
RRIRFRPPRLPRPRPRPGKLPRP | -0.0682
RRIRFRPPRLPRPRPRPGKVPRP | -0.216
RRIRFRPPRLPRPRPRPGLAPRP | 0.344
RRIRFRPPRLPRPRPRPGMEPRP | 0.0216
RRIRFRPPRLPRPRPRPGMTPRP | -0.142
RRIRFRPPRLPRPRPRPGMWPRP | 0.231
RRIRFRPPRLPRPRPRPGMYPRP | -0.076
RRIRFRPPRLPRPRPRPGPKPRP | 0.066
RRIRFRPPRLPRPRPRPGPNPRP | -0.0666
RRIRFRPPRLPRPRPRPGPQPRP | 0.447
RRIRFRPPRLPRPRPRPGQDPRP | -0.0452
RRIRFRPPRLPRPRPRPGQWPRP | -0.00218
RRIRFRPPRLPRPRPRPGRAPRP | 0.712
RRIRFRPPRLPRPRPRPGRDPRP | 0.0984
RRIRFRPPRLPRPRPRPGRKPRP | 0.107
RRIRFRPPRLPRPRPRPGSAPRP | 0.182
RRIRFRPPRLPRPRPRPGSQPRP | -0.117
RRIRFRPPRLPRPRPRPGSYPRP | -0.0318
RRIRFRPPRLPRPRPRPGTIPRP | -0.173
RRIRFRPPRLPRPRPRPGWVPRP | 0.176
RRIRFRPPRLPRPRPRPHAAPRP | 0.062
RRIRFRPPRLPRPRPRPHDAPRP | 0.293
RRIRFRPPRLPRPRPRPHDHPRP | -0.508

Sequence | shrunken log2 fold change
RRIRFRPPRLPRPRPRPHFNPRP | -0.692
RRIRFRPPRLPRPRPRPHFRPRP | -0.634
RRIRFRPPRLPRPRPRPHGFPRP | -0.105
RRIRFRPPRLPRPRPRPHHQPRP | -0.963
RRIRFRPPRLPRPRPRPHIWPRP | -0.57
RRIRFRPPRLPRPRPRPHKKPRP | -0.369
RRIRFRPPRLPRPRPRPHNNPRP | -0.638
RRIRFRPPRLPRPRPRPHSFPRP | 0.00365
RRIRFRPPRLPRPRPRPHSNPRP | -0.84
RRIRFRPPRLPRPRPRPHTIPRP | -0.745
RRIRFRPPRLPRPRPRPHVLPRP | -0.286
RRIRFRPPRLPRPRPRPHVPPRP | -0.315
RRIRFRPPRLPRPRPRPHVVPRP | -0.0249
RRIRFRPPRLPRPRPRPHWPPRP | 0.251
RRIRFRPPRLPRPRPRPHYCPRP | -0.197
RRIRFRPPRLPRPRPRPHYFPRP | -0.161
RRIRFRPPRLPRPRPRPHYPPRP | -0.178
RRIRFRPPRLPRPRPRPIADPRP | -0.0956
RRIRFRPPRLPRPRPRPICWPRP | -0.134
RRIRFRPPRLPRPRPRPICYPRP | 0.00889
RRIRFRPPRLPRPRPRPIDIPRP | 0.0578
RRIRFRPPRLPRPRPRPIDPPRP | -0.526
RRIRFRPPRLPRPRPRPIDSPRP | -0.401
RRIRFRPPRLPRPRPRPIFCPRP | -0.155
RRIRFRPPRLPRPRPRPIFTPRP | -0.128
